Source: patent publication US20260166168A1 (MEDILINK THERAPEUTICS SUZHOU, published 2026)

B1: DL309 (antibody, V domains shown)
VH: QVQLQQSGGDLMKPGASVKISCKAAGYTFSNYYIEWVKQRPGHGLEWIGEILPGSGSTTYNEKFKGKASFTADTSSNTAYMQLSSLTSEDSAVYYCARWGAREPGFPYWGQGTLVTVSA
VL: DIVMTQSQKFMSTSVGDRVSVTCKASQNVGTNVAWYQQKPGQSPKALIYSASYRYSGVPDRFTGSGSGTDFTLTISNVQSEDLAEYFCQQYNNYPLTFGAGTKLELK
B2: 6F11C10-Hz1 antibody (antibody, human IgG1, kappa, V domains shown)
VH: EVQLVQSGAEVKKPGASVKVSCKASGFTFTDYYMHWVRQAPGQSLEWMGLVYPYNGDISYAQKFQGRVTLTVDTSISTAYMELSRLRSDDTAVYYCARQGNYVNNAIDYWGQGTLVTVSS
VL: DIQMTQSPSSLSASVGDRVTITCKASQNVGNIIAWYQQKPGKSPKALIYLASYRYSGVPSRFSGSGSGTDFTLTISSLQPEDVATYFCQQYSDSPYTFGQGTKVEIKR
notes: Humanized IgG1/kappa
B3: DL306 (antibody, V domains shown)
VH: EVQLQQSGPELVKPGASVKMSCRASGYTFTDYYMKWVKQSHGKSLEWIGDINPNNGDTFYNQKFKGKATLTIDKSSSTAYMQLNSLTSDDSAVYYCARDGNYAYFDYWGQGTTLTVSS
VL: DIVLTQSPASLAVSLGQRATISCRASKSVSTSGYSYMHWYQQKPGQPPKLLIFLASNLESGVPARFSGSGSGTDFTLNIHPVEEEDAATYYCQHSRHLPWTFGGGTKLEIK
B4: DL301 (antibody, V domains shown)
VH: QVQLQQSGADLVRPGTSVKVSCKASGYAFTNYLIEWIKQRPGQGLEWIGVMNPGSGGTHYSEKFRGKATLTADKSSSTAYMQLISLTSDDSAVYFCARSDYDYVTYAMDYWGQGTSVTVSS
VL: DIKMTQSPSSMYASLGERVTITCKASQDINSYLIWFQQKPGKSPKTLIYRTNRLVDGVPSRFSGSGSGQDYSLTISSLEYGDMGIYYCLQYDEFPFTFGSGTKLEIK
B5: 59B10D3-Hz antibody (antibody, human IgG1, kappa, V domains shown)
VH: EVQLVESGGGLVQPGGSLRLSCAASGFTFSDAWMDWVRQAPGKGLEWVAEIRNKANNHATYYVDSVKGRFTISRDDAKNSVYLQMNSLRAEDTAVYYCTRNNYGSTWTYYAMDYWGQGTLVTVSS
VL: DIQMTQSPSSLSASVGDRVTITCRASQDISNYLNWYQQKPGKAVKLLIYYTSRLHSGVPSRFSGSGSGTDYTLTISSLQPEDFATYYCQQGYTLPLTFGQGTKVEIKR
notes: Humanized; also called 59B10D3-hz1
B6: DL312 (antibody, V domains shown)
VH: EVKLVESGGGLVQPGGSLSLSCAASGFTFTDYYMNWVRQPPGKALEWLALIRNKANGYTTEYNASVKGRFTISRDNSQNILYLQMNALRAEDSATYYCARDSDGYYEYYFDYWGQGTTLTVSS
VL: DIQMTQSPSSLSASLGERVSLTCRASQEISDYLSWLQQKPDGTIKRLIFAASTLDSGVPKRFSGSRSGSDFSLSISSLESEDFADYYCLQYASYPYTFGSGTKLEIK
B7: 55C11E4-Hz1 (antibody, human IgG1, kappa, V domains shown)
VH: EVQLVQSGAEVKKPGASVKVSCKASGYTFTDYYMNWVRQAPGQRLEWMGVINPYNGGTNYSQKFQGRVTLTVDKSASTAYMELSSLRSEDTAVYYCARDSNYVGLLDYWGQGTLVTVSS
VL: DIVLTQSPATLSLSPGERATLSCRASQSISNNLHWYQQKPGQAPRLLIKYASQSISGIPARFSGSGSGPDFTLTISSLEPEDFAVYFCQQSNSWPYTFGQGTKVEIKR
notes: Humanized IgG1/kappa
B8: 10F2F3-Hz antibody (antibody, human IgG1, kappa, V domains shown)
VH: QVQLVESGAEVKKPGSSVKVSCKASGYAFSSHWVNWVRQAPGQGLEWMGQIYPGNGDTNYAQKFQGRVTLTADKSTSTAYMELSSLTSEDTAVYFCARWFAYWGQGTLVTVSS
VL: DIQMTQSPSSLSASVGDRVTITCKSSQSLLDGGNQKNYLAWYQQKPGKPPKLLVYFASIRESGVPSRFSGSGSGTDFTLTISSLQPEDFATYYCQQHYNTPWTFGQGTKVEIKR
notes: Humanized
B9: 87F7F10-Hz (antibody, human IgG1, kappa, V domains shown)
VH: QVQLQESGPGLVKPSETLSLTCTVSGYSITSDFYWNWIRQPPGKGLEWIGYITYDGSTNYNPSLKSRVTISRDTSKNQFSLKLSSVTAADTAVYYCVYGDFNRHAMDYWGQGTLVTVSS
VL: DIVMTQSPDSLAVSLGERATINCRSSQSLFNSRTRKNYLAWYQQKPGQPPKVLIYWASTRESGVPDRFSGSGSGTDFTLTISSLQAEDVAVYYCEQSFYLFTFGQGTKVEIKR
notes: Humanized; also called 87F7F10-hz1

Assays:
[1] = biological target: T1, recombinant extracellular domain protein of human DLL3 (h.DLL3-ECD-His) (human, UniProt Q9NYJ7 27-492); experiment: ELISA, titrated antibody on plate-coated human DLL3, OD450nm
T1 construct: extracellular domain; Commercial protein; also called human DLL3 antigen; not shown: His tag
T1 sequence (looked up): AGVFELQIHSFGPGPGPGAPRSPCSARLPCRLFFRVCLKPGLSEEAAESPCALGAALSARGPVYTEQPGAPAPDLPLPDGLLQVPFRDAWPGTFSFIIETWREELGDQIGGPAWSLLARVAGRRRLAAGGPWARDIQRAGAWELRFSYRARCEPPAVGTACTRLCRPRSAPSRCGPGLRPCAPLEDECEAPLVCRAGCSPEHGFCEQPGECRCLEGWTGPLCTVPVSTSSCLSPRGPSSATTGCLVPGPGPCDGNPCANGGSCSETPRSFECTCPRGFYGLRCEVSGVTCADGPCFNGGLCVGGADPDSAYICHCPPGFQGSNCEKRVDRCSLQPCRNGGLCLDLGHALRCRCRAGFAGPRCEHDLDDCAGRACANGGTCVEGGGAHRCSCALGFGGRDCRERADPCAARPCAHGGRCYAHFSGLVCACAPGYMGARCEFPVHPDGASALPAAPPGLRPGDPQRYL

[2] = biological target: T2, human DLL1 on 293T-hDLL1 cells (human, UniProt O00548 18-723); experiment: flow cytometry on HEK293T-hDLL1 cells
T2 construct: whole, on cells; also called 293T-DLL1; HEK293T-hDLL1
T2 sequence (looked up): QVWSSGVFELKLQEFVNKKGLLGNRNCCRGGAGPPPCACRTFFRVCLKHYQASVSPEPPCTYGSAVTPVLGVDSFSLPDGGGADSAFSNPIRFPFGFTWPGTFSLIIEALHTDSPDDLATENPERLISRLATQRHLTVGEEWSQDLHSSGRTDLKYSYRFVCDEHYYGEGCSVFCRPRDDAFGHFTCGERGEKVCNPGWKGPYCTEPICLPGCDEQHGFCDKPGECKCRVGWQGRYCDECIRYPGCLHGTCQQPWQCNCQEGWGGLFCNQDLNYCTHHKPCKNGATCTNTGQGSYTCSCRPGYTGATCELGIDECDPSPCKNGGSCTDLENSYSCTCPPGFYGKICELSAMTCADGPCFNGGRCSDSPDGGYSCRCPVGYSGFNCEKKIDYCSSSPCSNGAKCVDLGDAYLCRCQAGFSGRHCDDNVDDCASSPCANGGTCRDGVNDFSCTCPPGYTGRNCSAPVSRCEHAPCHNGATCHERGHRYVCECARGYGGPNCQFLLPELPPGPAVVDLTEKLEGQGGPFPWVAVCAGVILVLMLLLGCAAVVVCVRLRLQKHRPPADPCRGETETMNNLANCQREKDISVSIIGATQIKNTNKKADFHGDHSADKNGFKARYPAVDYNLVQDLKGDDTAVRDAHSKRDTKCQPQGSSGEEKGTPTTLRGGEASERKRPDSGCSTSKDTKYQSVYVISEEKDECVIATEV

[3] = biological target: T3, human DLL4 on 293T-hDLL4 cells (human, UniProt Q9NR61 27-685); experiment: flow cytometry on HEK293T-hDLL4 cells
T3 construct: whole, on cells; also called 293T-DLL4; HEK293T-hDLL4

[4] = biological target: T1, recombinant extracellular domain …; experiment: ELISA, coated h.DLL3-ECD-his 0.2 µg/mL, antibody titrated
[5] = biological target: T4, recombinant extracellular domain protein of cynomolgus monkey DLL3 (cyno.DLL3-ECD-His) (cynomolgus monkey, UniProt A0A2K5WSR1 27-490); experiment: ELISA, coated cyno.DLL3-ECD-his 0.2 µg/mL, antibody titrated
T4 construct: extracellular domain; Commercial protein; not shown: His tag
T4 sequence: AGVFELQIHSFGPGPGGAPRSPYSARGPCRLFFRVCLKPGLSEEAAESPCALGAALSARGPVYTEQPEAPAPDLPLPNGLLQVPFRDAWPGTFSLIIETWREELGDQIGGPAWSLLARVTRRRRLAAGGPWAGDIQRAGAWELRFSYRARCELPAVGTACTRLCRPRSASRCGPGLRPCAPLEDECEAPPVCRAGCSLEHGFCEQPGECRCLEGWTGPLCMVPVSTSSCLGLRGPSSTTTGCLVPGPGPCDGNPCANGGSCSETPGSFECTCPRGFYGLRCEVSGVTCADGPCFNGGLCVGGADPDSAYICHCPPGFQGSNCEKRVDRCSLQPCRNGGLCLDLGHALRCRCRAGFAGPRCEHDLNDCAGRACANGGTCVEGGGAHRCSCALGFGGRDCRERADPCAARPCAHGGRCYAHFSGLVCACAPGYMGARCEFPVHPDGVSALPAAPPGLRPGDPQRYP

[6] = biological target: T1, recombinant extracellular domain …; experiment: BLI (ForteBio), antibody on ProA sensor, hDLL3-ECD-His in solution
[7] = biological target: T4, recombinant extracellular domain …; experiment: BLI (ForteBio), antibody on ProA sensor, cynoDLL3-ECD-His in solution

T3 sequence (Q9NR61 27-685): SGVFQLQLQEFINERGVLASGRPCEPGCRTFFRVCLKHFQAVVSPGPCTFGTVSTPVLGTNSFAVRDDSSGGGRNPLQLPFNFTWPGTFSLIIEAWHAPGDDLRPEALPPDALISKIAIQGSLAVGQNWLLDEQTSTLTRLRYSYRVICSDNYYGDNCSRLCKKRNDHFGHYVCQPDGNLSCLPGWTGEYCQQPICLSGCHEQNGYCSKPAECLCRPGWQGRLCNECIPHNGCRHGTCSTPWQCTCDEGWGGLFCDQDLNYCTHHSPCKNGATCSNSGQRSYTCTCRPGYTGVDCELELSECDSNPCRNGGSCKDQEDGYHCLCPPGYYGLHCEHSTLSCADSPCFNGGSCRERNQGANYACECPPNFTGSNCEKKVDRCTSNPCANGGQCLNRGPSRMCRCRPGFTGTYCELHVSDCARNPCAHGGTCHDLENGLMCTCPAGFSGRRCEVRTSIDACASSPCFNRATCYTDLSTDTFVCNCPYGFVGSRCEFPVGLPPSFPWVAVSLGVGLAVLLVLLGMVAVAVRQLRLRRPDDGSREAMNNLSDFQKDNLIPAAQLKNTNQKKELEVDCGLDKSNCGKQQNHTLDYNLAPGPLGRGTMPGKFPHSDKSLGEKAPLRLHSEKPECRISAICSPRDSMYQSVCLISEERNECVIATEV

| Binder | EC50 (read off the curve) [1] [ng/mL] | binding result [2] | binding result [3] | EC50 [4] [ng/mL] | EC50 [5] [ng/mL] | Kd [6] [nM] | koff [6] [s⁻¹] | kon [6] [M⁻¹ s⁻¹] | Kd [7] [nM] | koff [7] [s⁻¹] | kon [7] [M⁻¹ s⁻¹] |
| --- | --- | --- | --- | --- | --- | --- | --- | --- | --- | --- | --- |
| B1 | ~6 |  |  |  |  |  |  |  |  |  |  |
| B2 |  | no binding (tested: 20 µg/mL) | no binding (tested: 20 µg/mL) | 4.7 | 5.4 | 0.243 | 4.27e-05 | 175000 | 0.873 | 0.000328 | 375000 |
| B3 | ~5 |  |  |  |  |  |  |  |  |  |  |
| B4 | ~4 |  |  |  |  |  |  |  |  |  |  |
| B5 |  | no binding (tested: 20 µg/mL) | no binding (tested: 20 µg/mL) | 5.2 | 6.3 | 14 | 0.0017 | 122000 | 9.08 | 0.000908 | 100000 |
| B6 | ~5 |  |  |  |  |  |  |  |  |  |  |
| B7 |  | no binding (tested: 20 µg/mL) | no binding (tested: 20 µg/mL) | 3.9 | 4.1 | 5.26 | 0.000652 | 124000 | 2.37 | 0.000479 | 202000 |
| B8 |  | no binding (tested: 20 µg/mL) | no binding (tested: 20 µg/mL) | 3.4 | 3.5 | 6.07 | 0.00045 | 74200 | 1.28 | 0.000122 | 95100 |
| B9 |  | no binding (tested: 20 µg/mL) | no binding (tested: 20 µg/mL) | 3.8 | 3.3 | 8.57 | 0.000218 | 25400 | 2.41 | 8.84e-05 | 36700 |
